From article PMC6295060
Values belong to the substance of their own block, whether it stands above or below them.

Columns and labels:
DMAP1 [1] = biological target: DMAP1 (UniProt Q9NPF5); experiment: co-IP; conditions: reference: WT Bub3, mitotic arrest; sites S211
DMAP1 [2] = biological target: DMAP1 (UniProt Q9NPF5); experiment: co-IP with anti-Flag antibody; conditions: reference: WT Flag-rBub3; sites S211
DMAP1 [3] = biological target: DMAP1 (UniProt Q9NPF5); experiment: pull-down of His-Bub3 and GST-DMAP1; conditions: sites S211

binding against the reference (DMAP1 [1]): weaker
Substance: Bub3 (from UniProt O43684) Bub3 S211A, mitotic arrest

binding against the reference (DMAP1 [2]): lost
Substance: Bub3 (from UniProt O43684) Flag-rBub3 S211A

binding against the reference (DMAP1 [3]; reference: WT His-Bub3): lost
Substance: Bub3 (from UniProt O43684) His-Bub3 S211A

binding against the reference (DMAP1 [3]; reference: WT His-Bub3 without p38): gained
Substance: Bub3 (from UniProt O43684) WT His-Bub3 with purified p38
